In patent US20230143604A1, “QW DOSING OF GIP RECEPTOR AGONIST PEPTIDE COMPOUNDS AND USES THEREOF” (TAKEDA PHARMACEUTICAL COMPANY LIMITED, priority 2020, published 2023):
Starred links: 1 amine or outer side, 2 acyl side, 3 side chain; linkers in the order of their positions; H or OH if unused. Non-standard residues stand in square brackets, D forms with d. Groups on a side chain read outwards from the residue. No end group written: not given here. *: point of attachment. C18 diacid = O=C(O)CCCCCCCCCCCCCCCCC(=O)*; C17 diacid = O=C(O)CCCCCCCCCCCCCCCC(=O)*; γGlu = O=C(O)[C@H](CCC(=O)[*:2])N[*:1]; NMeY = CN[C@@H](Cc1ccc(O)cc1)C(=O)O; AEEA = NCCOCCOCC(=O)O; Aib = CC(C)(N)C(=O)O

T1: full-length human GIPR with an N-terminal FLAG tag (human, UniProt P48546 22-466)
T1 sequence (looked up): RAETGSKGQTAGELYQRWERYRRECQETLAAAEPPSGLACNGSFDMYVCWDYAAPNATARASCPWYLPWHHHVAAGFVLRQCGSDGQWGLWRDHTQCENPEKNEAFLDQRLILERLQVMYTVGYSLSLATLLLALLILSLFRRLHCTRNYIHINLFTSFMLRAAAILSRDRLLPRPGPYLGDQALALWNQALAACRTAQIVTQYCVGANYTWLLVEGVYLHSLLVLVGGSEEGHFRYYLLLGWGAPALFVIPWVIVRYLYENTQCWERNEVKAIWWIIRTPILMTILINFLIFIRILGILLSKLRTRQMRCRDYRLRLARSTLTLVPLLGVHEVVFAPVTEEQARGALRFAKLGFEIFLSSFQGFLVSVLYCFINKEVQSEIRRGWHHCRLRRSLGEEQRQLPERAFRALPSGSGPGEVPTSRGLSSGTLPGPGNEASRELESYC


Tests used:
[1] = target: T1, full-length human GIPR with an …; test: cell-based or functional assay
[2] = target: full-length human GLP-1R with an N-terminal FLAG tag (human, UniProt P43220 24-463); test: cell-based or functional assay

Binder	Human GIPR cAMP EC50, HEK293T [1] [nM]	Human GLP1R cAMP EC50, HEK293T [2] [nM]
H-Y[Aib]EGTFISDYSIALDKAAQ[Aib]K([AEEA-AEEA-γGlu-γGlu-C17 diacid])FVEWLLAQRG-OH [Compound No. 133]	0.0012	58.9
Y[Aib]EGTFISDYSIALDKAAQ[Aib]K([AEEA-AEEA-γGlu-γGlu-C18 diacid])FVEWLLAQRG-OH [Compound No. 154]	0.0003	8.91
Y[Aib]EGTFISDYSIALDKIAQRK([AEEA-AEEA-γGlu-γGlu-C17 diacid])FVEWLLAQRG-OH [Compound No. 143]	0.0004	4.9
YXEGTFISDYSIAXDRXAQXNFVNWLLAQSPSSGAPPPS (N-terminus H; Aib at 2,17,20; Lys(G5-C18 diacid) at 14; C-terminal OH) [Compound No. 138]	0.0008	2.04
[NMeY][Aib]EGTFISDYSIALDR[Aib]K([Gly-Gly-Pro-Ala-Pro-Ala-Pro-γGlu-C18 diacid])Q[Aib]DFVNWLLAQSPG-OH (N-terminus assumed; SMILES CC[C@H](C)[C@H](NC(=O)[C@H](CO)NC(=O)[C@H](Cc1ccc(O)cc1)NC(=O)[C@H](CC(=O)O)NC(=O)[C@H](CO)NC(=O)[C@@H](NC(=O)[C@H](Cc1ccccc1)NC(=O)[C@@H](NC(=O)CNC(=O)[C@H](CCC(=O)O)NC(=O)C(C)(C)NC(=O)[C@H](Cc1ccc(O)cc1)NC)[C@@H](C)O)[C@@H](C)CC)C(=O)N[C@@H](C)C(=O)N[C@@H](CC(C)C)C(=O)N[C@@H](CC(=O)O)C(=O)N[C@@H](CCCNC(=N)N)C(=O)NC(C)(C)C(=O)N[C@@H](CCCCNC(=O)CNC(=O)CNC(=O)[C@@H]1CCCN1C(=O)[C@H](C)NC(=O)[C@@H]1CCCN1C(=O)[C@H](C)NC(=O)[C@@H]1CCCN1C(=O)CC[C@H](NC(=O)CCCCCCCCCCCCCCCCC(=O)O)C(=O)O)C(=O)N[C@@H](CCC(N)=O)C(=O)NC(C)(C)C(=O)N[C@@H](CC(=O)O)C(=O)N[C@@H](Cc1ccccc1)C(=O)N[C@H](C(=O)N[C@@H](CC(N)=O)C(=O)N[C@@H](Cc1c[nH]c2ccccc12)C(=O)N[C@@H](CC(C)C)C(=O)N[C@@H](CC(C)C)C(=O)N[C@@H](C)C(=O)N[C@@H](CCC(N)=O)C(=O)N[C@@H](CO)C(=O)N1CCC[C@H]1C(=O)NCC(=O)O)C(C)C) [Compound No. 136]	0.0007	63.1
Y[Aib]EGTFISDYSI[Aib]LDR[Aib]AQ[Aib]K([AEEA-AEEA-γGlu-γGlu-C18 diacid])FVNWLLAQRG-OH (not fully specified (N-terminus)) [Compound No. 141]	0.0005	5.25
H-Y[Aib]EGTFISDYSIALDKIAQQK([AEEA-AEEA-γGlu-γGlu-C17 diacid])FVEWLLAQRPSSGAPPPS-OH [Compound No. 134]	0.0006	170
H-Y[Aib]EGTFISDYSIALDKIAQ[Aib]K([AEEA-AEEA-γGlu-γGlu-C17 diacid])FVEWLLAQRG-OH [Compound No. 132]	0.0009	66.1
H-Y[Aib]EGTFISDYSIALDR[Aib]AQ[Aib]K([AEEA-AEEA-γGlu-γGlu-C17 diacid])FVNWLLAQRG-OH (SMILES CC[C@H](C)[C@H](NC(=O)[C@H](CO)NC(=O)[C@H](Cc1ccc(O)cc1)NC(=O)[C@H](CC(=O)O)NC(=O)[C@H](CO)NC(=O)[C@@H](NC(=O)[C@H](Cc1ccccc1)NC(=O)[C@@H](NC(=O)CNC(=O)[C@H](CCC(=O)O)NC(=O)C(C)(C)NC(=O)[C@@H](N)Cc1ccc(O)cc1)[C@@H](C)O)[C@@H](C)CC)C(=O)N[C@@H](C)C(=O)N[C@@H](CC(C)C)C(=O)N[C@@H](CC(=O)O)C(=O)N[C@@H](CCCNC(=N)N)C(=O)NC(C)(C)C(=O)N[C@@H](C)C(=O)N[C@@H](CCC(N)=O)C(=O)NC(C)(C)C(=O)N[C@@H](CCCCNC(=O)COCCOCCNC(=O)COCCOCCNC(=O)CC[C@H](NC(=O)CC[C@H](NC(=O)CCCCCCCCCCCCCCCC(=O)O)C(=O)O)C(=O)O)C(=O)N[C@@H](Cc1ccccc1)C(=O)N[C@H](C(=O)N[C@@H](CC(N)=O)C(=O)N[C@@H](Cc1c[nH]c2ccccc12)C(=O)N[C@@H](CC(C)C)C(=O)N[C@@H](CC(C)C)C(=O)N[C@@H](C)C(=O)N[C@@H](CCC(N)=O)C(=O)N[C@@H](CCCNC(=N)N)C(=O)NCC(=O)O)C(C)C) [Compound No. 140]	0.0007	3.98
H-Y[Aib]EGTFISDYSIALDK[Aib]AQAK([AEEA-AEEA-γGlu-γGlu-C17 diacid])FVEWLLAQRG-OH (SMILES CC[C@H](C)[C@H](NC(=O)[C@H](CO)NC(=O)[C@H](Cc1ccc(O)cc1)NC(=O)[C@H](CC(=O)O)NC(=O)[C@H](CO)NC(=O)[C@@H](NC(=O)[C@H](Cc1ccccc1)NC(=O)[C@@H](NC(=O)CNC(=O)[C@H](CCC(=O)O)NC(=O)C(C)(C)NC(=O)[C@@H](N)Cc1ccc(O)cc1)[C@@H](C)O)[C@@H](C)CC)C(=O)N[C@@H](C)C(=O)N[C@@H](CC(C)C)C(=O)N[C@@H](CC(=O)O)C(=O)N[C@@H](CCCCN)C(=O)NC(C)(C)C(=O)N[C@@H](C)C(=O)N[C@@H](CCC(N)=O)C(=O)N[C@@H](C)C(=O)N[C@@H](CCCCNC(=O)COCCOCCNC(=O)COCCOCCNC(=O)CC[C@H](NC(=O)CC[C@H](NC(=O)CCCCCCCCCCCCCCCC(=O)O)C(=O)O)C(=O)O)C(=O)N[C@@H](Cc1ccccc1)C(=O)N[C@H](C(=O)N[C@@H](CCC(=O)O)C(=O)N[C@@H](Cc1c[nH]c2ccccc12)C(=O)N[C@@H](CC(C)C)C(=O)N[C@@H](CC(C)C)C(=O)N[C@@H](C)C(=O)N[C@@H](CCC(N)=O)C(=O)N[C@@H](CCCNC(=N)N)C(=O)NCC(=O)O)C(C)C) [Compound No. 131]	0.0004	151
Y[Aib]EGTFISDYSIALDKIAQ[Aib]K([AEEA-AEEA-γGlu-γGlu-C18 diacid])FVEWLLAQRG-OH [Compound No. 153]	0.0003	6.76
Y[Aib]EGTFISDYSIALDKIAQQK([AEEA-AEEA-γGlu-γGlu-C17 diacid])FVEWLLAQRG-OH [Compound No. 142]	0.0004	158
